Here are results for 4 molecules from patent publication US5362852A, “Modified peptide derivatives conjugated at 2-hydroxyethylamine moieties” (Pfizer Inc., priority 1991, dated 1994).

One test concerns the target T1, human CRF receptor (Homo sapiens, UniProt P34998).
T1 construct: human CRF receptor (prepared from cultured SK-N-SH cells); endogenous in cells; host or cells: SK-N-SH cells (human neuroblastoma), receptor preparation
T1 sequence (P34998 24-415): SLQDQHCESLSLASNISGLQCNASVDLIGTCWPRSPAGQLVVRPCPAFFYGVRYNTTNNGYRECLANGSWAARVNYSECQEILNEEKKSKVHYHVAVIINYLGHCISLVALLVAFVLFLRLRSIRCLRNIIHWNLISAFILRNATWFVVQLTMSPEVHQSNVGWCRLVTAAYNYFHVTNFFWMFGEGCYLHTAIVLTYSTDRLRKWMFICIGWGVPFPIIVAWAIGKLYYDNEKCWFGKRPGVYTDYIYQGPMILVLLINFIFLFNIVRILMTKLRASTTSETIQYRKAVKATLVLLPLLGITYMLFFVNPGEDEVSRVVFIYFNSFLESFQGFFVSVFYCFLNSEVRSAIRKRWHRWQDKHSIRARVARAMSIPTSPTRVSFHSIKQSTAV
Put plainly: ability to bind to the human CRF receptor (prepared from cultured SK-N-SH cells). The conditions noted are these: products dissolved in 0.05M sodium phosphate, pH 7.0. Format: binding. As for the experimental part:
The products were dissolved in 0.05M sodium phosphate, pH 7.0, and tested for their ability to bind to the human CRF receptor (prepared from cultured SK-N-SH cells).

For test [1], the target named is human CRF receptor (human). Put plainly: receptor binding assay on human CRF receptor prepared from cultured SK-N-SH cells.

In the case of `CC[C@H](C)[C@H](NC(=O)[C@H](CC(=O)O)NC(=O)[C@H](CC(C)C)NC(=O)[C@H](CC(C)C)NC(=O)[C@H](CCCCN)NC(=O)[C@H](CCCNC(=N)N)NC(=O)[C@H](CC(N)=O)NC(=O)[C@H](CO)NC(=O)[C@H](Cc1c[nH]cn1)NC(=O)[C@H](C)NC(=O)[C@H](CCC(N)=O)NC(=O)[C@H](CCC(N)=O)NC(=O)[C@H](C)NC(=O)[C@H](CC(C)C)NC(=O)[C@H](CCC(N)=O)NC(=O)[C@H](CC(=O)O)NC(=O)[C@H](C)NC(=O)[C@H](CCCCN)NC(=O)[C@@H](NC(=O)[C@H](CC[S+](C)[O-])NC(=O)[C@H](CCC(=O)O)NC(=O)[C@H](CC(C)C)NC(=O)[C@@H](NC(=O)[C@H](CCC(=O)O)NC(=O)[C@H](CCCNC(=N)N)NC(=O)[C@H](CC(C)C)NC(=O)[C@H](CC(C)C)NC(=O)[C@H](Cc1c[nH]cn1)NC(=O)[C@H](Cc1ccccc1)NC(=O)[C@@H](NC(=O)[C@H](CC(C)C)NC(=O)[C@H](CC(=O)O)NC(=O)[C@H](CC(C)C)NC(=O)[C@H](CO)NC(=O)[C@@H](NC(=O)[C@@H]1CCCN1C(=O)[C@@H]1CCCN1C(=O)[C@H](CCC(=O)O)NC(=O)[C@H](CCC(N)=O)NC(=O)[C@@H](N)CO)[C@@H](C)CC)[C@@H](C)O)C(C)C)[C@@H](C)O)C(=O)N[C@@H](C)C(N)=O` (stereo partly shown) [CRF [Met^21 O]], the IC50 (commonly the concentration that inhibits the measured activity by half) against human CRF receptor was 5 nM. In the case of underivatized CRF [Met^21 O], in test [1], the IC50 was 5 nM.

B1: N-terminally biotinylated ovine CRF [Met^21 O] (peptide)
peptide: SQEPPISLDLTFHLLREVLEXTKADQLAQQAHSNRKLLDIA
modifications: N-terminal Ser oxidised by periodate to glyoxylyl (=CH-CO-) and coupled as hydrazone to 6-((biotinoyl)amino)caproic acid hydrazide (biotin-X-hydrazide); Met 21 as the sulfoxide (Met^21 O)
For the molecule B1, in test [1], the IC50 was 5 nM.

B2: Lucifer Yellow conjugate of ovine CRF [Met^21 O] (peptide)
peptide: B1 peptide
modifications: N-terminal Ser oxidised by periodate to glyoxylyl (=CH-CO-) and coupled as hydrazone to Lucifer Yellow; Met 21 as the sulfoxide (Met^21 O)
B2: the IC50 in test [1] came to 5 nM.
